In test [1] the target is T1, human nerve growth factor (beta-NGF) (human, UniProt P01138 122-241). The experiment in a line: cell-based or functional assay.
The target in test [2] is T2, rat nerve growth factor (beta-NGF) (rat, UniProt P25427 122-241). The experiment in a line: cell-based or functional assay.
Test [3] concerns the target mouse nerve growth factor (mouse, UniProt P01139 122-241). Briefly: cell-based or functional assay.
The target of test [4] is T2, rat nerve growth factor (beta-NGF). The experiment in a line: inhibition of rat 125I-NGF binding to coated p75 fusion protein. The procedure:
(§1) Human TrkA and p75 receptor fusion proteins (R&D Systems) were diluted in Dulbecco's PBS (Gibco) to final concentrations of 10 nM and 0.6 nM, respectively. Maxisorp Nunc white 96 well microtitre plates (Nalge Nunc) were coated overnight at 4° C. with 100 μl/well of the diluted TrkA or p75 receptor solution. Plates were washed 3 times with PBS Tween 20, and then blocked with 200 μl/well 3% w/v bovine serum albumin (BSA) in PBS. Plates were washed after 1 h incubation at room temperature. Test antibodies were diluted to the desired concentration in assay buffer (0.5% w/v BSA and 0.05% v/v Tween 20 in PBS). […] Duplicate wells were prepared for each concentration of test sample. […] Bound radiolabel was quantified by addition of 100 μl/well Microscint 20 (Perkin Elmer) followed by counting using a Packard TopCount microplate liquid scintillation counter. Data were plotted and analysed using Graphpad Prism software to calculate IC₅₀ values for each experiment, and to derive the corresponding Ki according to the Cheng-Prusoff equation; Ki=IC₅₀/(1+D/Kd) Where: [0257]

The target is the same in test [5]. The experiment in a line: inhibition of rat 125I-NGF binding to coated TrkA fusion protein. As for the experimental part: as §1
The target of test [6] is T1, human nerve growth factor (beta-NGF). The experiment in a line: inhibition of human 125I-NGF binding to coated p75 fusion protein. The procedure: as §1
For test [7] the target is unchanged. Briefly: inhibition of human 125I-NGF binding to coated TrkA fusion protein. As for the experimental part: as §1
For test [8] the target is unchanged. Briefly: cell-based or functional assay. The source holds these as a separate data set.
The target in test [9] is T2, rat nerve growth factor (beta-NGF). Briefly: cell-based or functional assay. The source holds these as a separate data set.
Test [10] deals with T1, human nerve growth factor (beta-NGF). The experiment in a line: cell-based or functional assay. This is another data set of the same source.
In test [11] the target is T2, rat nerve growth factor (beta-NGF). The experiment in a line: cell-based or functional assay. This is another data set of the same source.

The record followed here is patent publication US20080107658A1 (AstraZeneca / MedImmune, published 2008).

Read-outs that look alike come from different tables or passages of the source.

Chain of mouse nerve growth factor (P01139 122-241): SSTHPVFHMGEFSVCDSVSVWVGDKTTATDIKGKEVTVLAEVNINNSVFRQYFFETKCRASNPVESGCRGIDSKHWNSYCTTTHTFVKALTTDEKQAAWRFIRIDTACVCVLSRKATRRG
T1 sequence (P01138 122-241): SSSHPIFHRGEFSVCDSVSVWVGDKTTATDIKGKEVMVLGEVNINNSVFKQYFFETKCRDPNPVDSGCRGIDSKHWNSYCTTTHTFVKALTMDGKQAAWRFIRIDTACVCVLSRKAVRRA
T2 sequence (P25427 122-241): as the sequence (P01139 122-241) above, with A40G, R50K, S61P, E94D, T117A counted along it

The IC50 is the concentration at which inhibition is half-maximal. For orientation: Ki means a dissociation constant, usually derived from enzyme kinetics or from competition with a known ligand. With “mouse anti-human NGF MAB256 (R&D Systems) (antibody)”, the results for the IC50, FLIPR calcium mobilisation in [1], in test [2] and in [3] were 0.76 nM, 0.79 nM and 1.4 nM, respectively. In addition, the IC50, PC12 cell survival in test [1] is 23 nM; in test [2], 44 nM. Further, the IC50, TF-1 cell proliferation in test [1] was 6 nM; in [2], 5 nM; in [3], 7 nM. For the same molecule, the IC50, calcium mobilisation assay amounted to 0.76 nM in test [1] and 0.79 nM in test [2]. In addition, the concentration for half-maximal inhibition (IC50) in [4] was determined as 2.94 nM; in [5] it was 1.48 nM; in [6] it was 0.304 nM; in test [7] it was 1.94 nM. Besides, the inhibition constant Ki in test [4] amounted to 2.67 nM; in test [5], 1.38 nM; in test [6], 0.252 nM; in test [7] it was 1.76 nM.

In the case of “mouse anti-mouse NGF MAB5260Z (Chemicon) (antibody)”, the half-inhibitory concentration (IC50) in test [4] stood at 0.587 nM; in test [5] it was 0.31 nM; in [6] it was 0.57 nM; in test [7], 0.368 nM. The inhibitory constant (Ki) in test [4] was determined as 0.532 nM; in [5], 0.288 nM; in [6], 0.472 nM; in [7] it was 0.333 nM.

B1: 1064F8 human IgG4 (antibody, V domains shown)
VH: EVQLVQSGAEVKKPGSSVKVSCKASGGTFSSYAYTWVRQAPGQGLEWMGGIVPIFGSTNYAQKFQGRLTITADEFTSTAHMELSSLTSADTAVYYCAGGSDLYCSGGNCYGGGHYYYYMDVWGQGTTVTVSS
VL: SSELTQDPAVSVALGQTVRITCTGTSSDVGGYNYVSWYQQHPGKAPKLMIYEGSKRPSGVSNRFSGSKSGNTASLTISGLQAEDEADYYCSSYTTRSTRVFGGGTKLTVL
B1: the figures for the “IC50, calcium mobilisation assay” value in test [8] and in [9] were 2.5 nM and 5.5 nM, respectively.

B2: 1028F8 human IgG4 (antibody, V domains shown)
VH: EVQLLESGGGLVQPGGSLRLSCAASGFTFSSYAMSWVRQAPGKGLEWVSAIIGSGGSTYYADSVKGRFTISRDNSKNTLYLQMNSLRAEDTAVYYCARAGGSGWFENWFDPWGRGTLVTVSS
VL: QSVLTQPPSVSVSPGQTATITCSGDNLEDKYVSWYQQKAGQSPVLVIFQDSKRPSEIPERFSGSNSGNTATLTISGTLSGDEADYYCQVWDAGIDPWAFGGGTKLTVL
For B2, the “IC50, calcium mobilisation assay” value in test [8] came to 73 nM.

B3: 1016A8 human IgG4 (antibody, V domains shown)
VH: EVQLVQSGAELKKPGASVKVSCKASGYPFTSYYMHWVRQAPGQGLEWMGLVDPEDGETIYAEKFQGRVTITADTSTDTAYMELSSLRSEDTAVYSCATSSHNYGTASYYHYGMDVWGRGTMVTVSS
VL: QSVLTQPPSASGTPGQRVTISCSGSSSNIGSNTVNWYQRLPGAAPQLLIYNNDQRPSGIPDRFSGSKSGTSGSLVISGLQSEDEADYYCASWDDSLNGRVFGGGTKLTVL
For B3, the results for the “IC50, calcium mobilisation assay” value in test [8] and in test [9] were 65 nM and 14 nM, respectively.

B4: 1083H4 human IgG4 (antibody, V domains shown)
VH: QMQLVQSGAEVKKTGSSVKVSCKASGYTFAYHYLHWVRQAPGQGLEWMGGIIPIFGTTNYAQRFQDRVTITADESTSTAYMELSSLRSEDTAVYYCASADYVWGSYRPDWYFDLWGRGTMVTVSS
VL: B3 VL
In the case of B4, the “IC50, calcium mobilisation assay” value is 30 nM in test [8] and 61 nM in test [9]. Also, the entries for the “IC50, FLIPR calcium mobilisation” value in [10], in test [11] and in test [3] were 30 nM, 61 nM and 54 nM, respectively. The “IC50, PC12 cell survival” value in [10] is around 1100 nM.

B5: 1057F11 human IgG4 (antibody, V domains shown)
VH: EVQLVETGGGVVQPGTSLRLSCAASGFTFSSHGMHWVRQAPGQGLEWVAHAWSDGSNKYYADSLKGRFTISRDNSRNTLYLQMNSLRAEDTAVYYCARDGQQLANYAMDVWGRGTTVTVSS
VL: DIQMTQSPSFLSASVGDRVTITCRASQGINSYLAWYQQIPGKAPNLLIYAASTLQSGVPSRFSGSGSGTEFTLTISSLQPEDFATYYCQQLNTYPFTFGPGTKVEIK
With B5, the “IC50, calcium mobilisation assay” value in test [8] was around 3700 nM.

B6: 1024C4 human IgG4 (antibody, V domains shown)
VH: QVQLQESGGGVVQPGRSLRLSCAASGFAFKKYGLHWVRQAPGKGLEWVGVTSYDGSKNYYADSVKGRFTISRDNSKNTLYLQVNSLRPEDTAVYYCAKDGEVGDLHLVPFRQDSGLDVWGRGTLVTVSS
VL: QSVLTQPPSVSVSPGQTASITCSGDNLGDKYVHWYQQKPGQSPVLVTYQDTKRPSGIPERFSGSNSGNTATLTISGTQAMDEAGYYCQAWDSSTVVFGGGTKLTVL
With B6, the “IC50, calcium mobilisation assay” value was around 410 nM in [8] and around 565 nM in test [9].

B7: 1033G9 human IgG4 (antibody, V domains shown)
VH: EVQLVQSGAEVRKPGSSVKVSCKASGDTSTLYSINWVRQVPGQGLEWMGAIIPIFGLTDYAQEFQGRLTITADESTNTAYMELTGLRSEDTAIYYCARNLFTTLSYWYFDLWGQGTLVTVSS
VL: SSELTQDPAVSVALGQTVRITCQGDRLRSYYASWYQQKPGQAPVLVIYGKNNRPSGIPDRFSGSSSGNTASLTITGAQAEDEADYYCNSRDSSGNHVVFGGGTLLTVL
In the case of B7, the figures for the “IC50, calcium mobilisation assay” value in test [8] and in [9] were 55 nM and 26 nM, respectively.

B8: 1022E3 human IgG4 (antibody, V domains shown)
VH: QVQLVQSGAEVKKPGASVKVSCKASGYSFINYSMHWVRQAPGQGLEWIGIINPGGDSTKYTQRFQDRVTMTWDTSTSTVYMDLSSLRSEDTAIYYCARGLHPIPMMLATINPIFAYWGQGTLVTVSS
VL: SSELTQDPAVSVALGQTVRITCRGDSLRNYYANWYQQKPGQAPVLVIYDENKRPSGIPDRFSGSGSGNTASLTITGAQAEDEADYFCNSRDTFGYVRDVLFGGGTKVTVL
Turning to B8, the “IC50, calcium mobilisation assay” value is 18 nM in test [8] and 14 nM in [9].

B9: 1033B2 human IgG4 (antibody, V domains shown)
VH: QVQLQQSGAEVKKPGSSVKLSCKASGGTFSSFGISWVRQAPGQGLEWLGRIIPFLGPADYAQKFQGRVTITADESRSTAYMELSSLTSEDTAVYFCARSFYDILTGYYEGVFYYYMDVWGQGTMVTVSS
VL: QSVLIQPASVSGSPGQSITISCTGTSSDVGGYNYVSWYQQHPGKAPKLMIYEGSKRPSGVSNRFSGSKSGNTASLTISGLQAEDEADYYCSSYTTRSTRVFGGGTKLTVL
B9: the “IC50, calcium mobilisation assay” value in test [8] turned out to be 85 nM.

B10: 1021E5 human IgG4 (antibody, V domains shown)
VH: EVQLVQSGAEVKKPGSSVKVSCKASGGTFSTYGISWVRQAPGQGLEWIGGIIPIFDTGNSAQSFQGRVTITADESTSTAYMEVSSLRSDDTAVYYCASSSRIYDYAGGDHYYYDMDVWGQGTMVTVSS
VL: QAVLTQPSSVSTPPGQKVTISCSGSSSNIGNNYVSWYQQLPGTAPKLLIYDNNKRPSGIPDRFSGSKSGTSATLGITGLQTGDEADYYCGTWDSSLSAWVFGGGTKLTVL
On to B10, for which the entries for the “IC50, calcium mobilisation assay” value in test [8] and in test [9] were 76 nM and 75 nM, respectively. The “IC50, FLIPR calcium mobilisation” value in test [10] was determined as 76 nM; in test [11], 75 nM; in [3], 47 nM. Also, the “IC50, PC12 cell survival” value in test [10] was around 1300 nM.
